Experimental findings from patent publication US20080107658A1 (AstraZeneca / MedImmune, published 2008) are described below.

First the molecules themselves.
B1: 1252A5 IgG4 (antibody, V domains shown)
VH: QVQLVQSGAEVKKPGSSVKVSCKASGGTFSTYGISWVRQAPGQGLEWMGGIIPIFDTGNSAQSFQGRVTITADESTSTAYMELSSLRSEDTAVYYCARSSRIYDLNPSLTAYYDMDVWGQGTMVTVSS
VL: QSVLTQPPSVSAAPGQKVTISCSGSSSNIGNNYVSWYQQLPGTAPKLLIYDNNKRPSGIPDRFSGSKSGTSATLGITGLQTGDEADYYCGTWDSSLSAWVFGGGTKLTVL
notes: tested as whole human IgG4; also called germlined 1133C11
B2: G1152H5 human IgG4 (antibody, V domains shown)
VH: B1 VH with L105M, N106I, P107S, T110Q, A111P
VL: B1 VL
notes: tested as whole human IgG4; also called germlined 1152H5
B3: 1057F11 scFv (scFv, V domains shown)
VH: EVQLVETGGGVVQPGTSLRLSCAASGFTFSSHGMHWVRQAPGQGLEWVAHAWSDGSNKYYADSLKGRFTISRDNSRNTLYLQMNSLRAEDTAVYYCARDGQQLANYAMDVWGRGTTVTVSS
VL: DIQMTQSPSFLSASVGDRVTITCRASQGINSYLAWYQQIPGKAPNLLIYAASTLQSGVPSRFSGSGSGTEFTLTISSLQPEDFATYYCQQLNTYPFTFGPGTKVEIK
notes: purified scFv
B4: rat nerve growth factor (beta-NGF) (ligand, UniProt P25427 122-241, looked up)
chain: SSTHPVFHMGEFSVCDSVSVWVGDKTTATDIKGKEVTVLGEVNINNSVFKQYFFETKCRAPNPVESGCRGIDSKHWNSYCTTTHTFVKALTTDDKQAAWRFIRIDTACVCVLSRKAARRG
notes: mature; also called rat NGF; recombinant rat β-NGF
B5: 1033B2 scFv (scFv, V domains shown)
VH: QVQLQQSGAEVKKPGSSVKLSCKASGGTFSSFGISWVRQAPGQGLEWLGRIIPFLGPADYAQKFQGRVTITADESRSTAYMELSSLTSEDTAVYFCARSFYDILTGYYEGVFYYYMDVWGQGTMVTVSS
VL: QSVLIQPASVSGSPGQSITISCTGTSSDVGGYNYVSWYQQHPGKAPKLMIYEGSKRPSGVSNRFSGSKSGNTASLTISGLQAEDEADYYCSSYTTRSTRVFGGGTKLTVL
notes: purified scFv

Test [1] deals with T1, human nerve growth factor (beta-NGF) (human, UniProt P01138 122-241). In words: cell-based or functional assay.
T1 sequence (P01138 122-241): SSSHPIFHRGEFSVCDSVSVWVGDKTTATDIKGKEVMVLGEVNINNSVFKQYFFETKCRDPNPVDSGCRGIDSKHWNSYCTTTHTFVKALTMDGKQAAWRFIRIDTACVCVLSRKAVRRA
Test [2] deals with B4. In words: cell-based or functional assay.
For test [3], the target named is mouse nerve growth factor (mouse, UniProt P01139 122-241). In words: cell-based or functional assay.
Chain of mouse nerve growth factor (P01139 122-241): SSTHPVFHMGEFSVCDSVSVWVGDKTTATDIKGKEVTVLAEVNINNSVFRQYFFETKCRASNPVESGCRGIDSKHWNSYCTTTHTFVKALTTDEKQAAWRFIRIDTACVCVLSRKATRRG
Test [4] has as its target B4. Briefly: rat 125I-NGF saturation binding to captured IgG4, one-site model. How it is done: (§1) Briefly, flashplates (Perkin Elmer SMP200) were coated with 100 μl/well of 2.2 μg/ml goat anti-human IgG (Sigma-Aldrich, UK) in phosphate buffered saline (PBS) for 1 h. Wells were washed with PBS and then blocked for 1 h with 200 μl/well PBS containing 3% w/v bovine serum albumin (BSA; Sigma-Aldrich, UK). […] Following incubation for 1 h plates were washed with PBS.
(§2) Plates were incubated overnight, and wells counted for 1 min on a gamma counter (TopCount NXT, Perkin Elmer). Specific binding was calculated according to the formula ‘specific binding=total binding−non-specific binding’. Binding curves were plotted and binding parameters determined according to a one-site saturation binding model using Prism software (GraphPad Software Inc., USA).

The target of test [5] is T1, human nerve growth factor (beta-NGF). In words: human 125I-NGF saturation binding to captured IgG4, one-site model. How it is done:
as §1, §2

Test [6] addresses B4. In words: inhibition of rat 125I-NGF binding to coated p75 fusion protein. On the procedure:
(§3) Human TrkA and p75 receptor fusion proteins (R&D Systems) were diluted in Dulbecco's PBS (Gibco) to final concentrations of 10 nM and 0.6 nM, respectively. Maxisorp Nunc white 96 well microtitre plates (Nalge Nunc) were coated overnight at 4° C. with 100 μl/well of the diluted TrkA or p75 receptor solution. Plates were washed 3 times with PBS Tween 20, and then blocked with 200 μl/well 3% w/v bovine serum albumin (BSA) in PBS. Plates were washed after 1 h incubation at room temperature. Test antibodies were diluted to the desired concentration in assay buffer (0.5% w/v BSA and 0.05% v/v Tween 20 in PBS). […] Duplicate wells were prepared for each concentration of test sample. […] Bound radiolabel was quantified by addition of 100 μl/well Microscint 20 (Perkin Elmer) followed by counting using a Packard TopCount microplate liquid scintillation counter. Data were plotted and analysed using Graphpad Prism software to calculate IC₅₀ values for each experiment, and to derive the corresponding Ki according to the Cheng-Prusoff equation; Ki=IC₅₀/(1+D/Kd) Where: [0257]

Test [7] concerns the target B4. Briefly: inhibition of rat 125I-NGF binding to coated TrkA fusion protein. How it is done:
as §3

In test [8] the target is T1, human nerve growth factor (beta-NGF). Briefly: inhibition of human 125I-NGF binding to coated p75 fusion protein. How it is done:
as §3

Test [9] shares this target. Briefly: inhibition of human 125I-NGF binding to coated TrkA fusion protein. How it is done:
as §3

Test [10] has as its target B4. Briefly: inhibition of rat 125I-NGF binding to coated p75 fusion protein, Cheng-Prusoff, n=3. On the procedure: (§4) Competition binding experiments were designed in order to calculate binding inhibition constant (Ki) values. […] Ki values were then derived using the Cheng-Prusoff equation.
as §3

Test [11] addresses B4. Briefly: inhibition of rat 125I-NGF binding to coated TrkA fusion protein, Cheng-Prusoff, n=3. How it is done:
as §4, §3

Test [12] addresses T1, human nerve growth factor (beta-NGF). Briefly: inhibition of human 125I-NGF binding to coated p75 fusion protein, Cheng-Prusoff, n=3. On the procedure:
as §4, §3

For test [13] the target is unchanged. In words: inhibition of human 125I-NGF binding to coated TrkA fusion protein, Cheng-Prusoff, n=3. On the procedure:
as §4, §3

Test [14] deals with B4. In words: purified scFv, inhibition of NGF binding to coated TrkA fusion protein (DELFIA). On the procedure: Crude scFv samples were prepared from periplasmic lysates of E. coli TG-1 bacteria transfected with selected phage for evaluation in the binding assay. […] Assay plates were washed with PBS/Tween 20, blocked for 2 h using 1% bovine serum albumin (BSA) in PBS, and washed again. […] Samples were transferred in a volume of 100 μl to assay plates and incubated for 60 min at room temperature. […] Briefly, plates were washed and 100 μl streptavidin Eu³⁺ added to each well, diluted 1/1000 in DELFIA assay buffer. Plates were incubated for a further 60 min at room temperature and washed with DELFIA wash buffer, followed by addition of 100 μl DELFIA enhancement solution to each well. Plates were read using a Wallac Victor fluorimetric plate reader (excitation wavelength 314 nm; emission wavelength 615 nm).
Purified scFv preparations were prepared as described in Example 3 of WO01/66754. Protein concentrations of purified scFv preparations were determined using the BCA method (Pierce).

Test [15] addresses T2, human p75 receptor fusion protein (R&D Systems) (human, UniProt P08138 29-250).
T2 construct: bought fusion protein; also called p75 neurotrophin receptor
T2 sequence (looked up): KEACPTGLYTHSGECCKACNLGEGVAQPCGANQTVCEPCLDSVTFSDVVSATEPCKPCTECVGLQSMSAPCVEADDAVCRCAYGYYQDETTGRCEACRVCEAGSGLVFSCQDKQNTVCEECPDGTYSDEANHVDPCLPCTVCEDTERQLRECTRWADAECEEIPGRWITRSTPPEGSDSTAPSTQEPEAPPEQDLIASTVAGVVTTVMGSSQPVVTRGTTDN
In words: unlabelled NGF displacing rat 125I-NGF from coated p75 fusion protein. How it is done: as §3

In test [16] the target is T3, human TrkA receptor extracellular domain fusion protein (R&D Systems) (human, UniProt P04629 33-423).
T3 construct: extracellular domain; bought fusion protein; also called TrkA receptor fusion protein
T3 sequence (P04629 33-423): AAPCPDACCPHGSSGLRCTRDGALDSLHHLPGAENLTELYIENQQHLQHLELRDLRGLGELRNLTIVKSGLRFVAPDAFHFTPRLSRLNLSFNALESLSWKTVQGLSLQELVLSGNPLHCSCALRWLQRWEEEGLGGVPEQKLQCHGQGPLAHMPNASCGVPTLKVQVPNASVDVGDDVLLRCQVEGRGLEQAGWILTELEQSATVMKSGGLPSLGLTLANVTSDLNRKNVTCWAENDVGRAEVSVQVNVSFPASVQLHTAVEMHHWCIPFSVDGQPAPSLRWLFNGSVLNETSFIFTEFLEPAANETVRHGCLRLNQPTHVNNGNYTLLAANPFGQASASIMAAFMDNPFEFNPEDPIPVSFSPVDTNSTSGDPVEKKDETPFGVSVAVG
In words: unlabelled NGF displacing rat 125I-NGF from coated TrkA fusion protein.

Changes are numbered by the printed parent chain.

For orientation: Kd means a measure of binding affinity in units of concentration. Read a low Kd as tighter binding. Usually IC50 stands for the point on the concentration scale where inhibition reaches its midpoint. High values mean a need for much substance, low ones inhibition by little substance. Broadly, the Ki is the dissociation constant of the complex between target and ligand, obtained from inhibition or displacement. The low end stands for tighter binding, the high end for weaker binding. Usually pKi stands for the negative decadic logarithm of the Ki, by convention in mol/L. Read a high pKi as a low Ki. As for B1, the “IC50, FLIPR calcium mobilisation” value amounted to 0.33 nM in test [1], 0.29 nM in test [2] and 0.26 nM in [3]. The results for the “IC50, PC12 cell survival” value in [1] and in [2] were 0.94 nM and 2.7 nM, respectively. For the same molecule, the results for the “IC50, TF-1 cell proliferation” value in test [1], in [2] and in test [3] were 0.42 nM, 0.72 nM and 0.55 nM, respectively. Further, the Kd turned out to be 0.44 nM in [4] and 0.35 nM in test [5]. In addition, the IC50 in test [6] amounted to 0.302 nM; in test [7], 0.151 nM; in test [8], 0.188 nM; in [9], 0.068 nM. Also, the inhibition constant Ki was determined as 0.274 nM in test [6], 0.14 nM in test [7], 0.155 nM in [8] and 0.061 nM in [9]. For the same molecule, the pKi in [10] was 9.55; in [11] it was 9.79; in [12], 9.85; in test [13], 10.3.
For the molecule B2, the results for the “IC50, FLIPR calcium mobilisation” value in test [1], in test [2] and in test [3] were 0.22 nM, 0.27 nM and 0.18 nM, respectively. In addition, the “IC50, PC12 cell survival” value in [1] came to 1.1 nM; in test [2], 7.3 nM. Further, the “IC50, TF-1 cell proliferation” value in test [1] was found to be 0.44 nM; in test [2], 1.44 nM; in test [3], 0.99 nM. The results for the Kd in [4] and in test [5] were 0.5 nM and 0.37 nM, respectively. Besides, the IC50 amounted to 0.781 nM in test [6], 0.538 nM in test [7], 0.348 nM in [8] and 0.204 nM in test [9]. In addition, the inhibition constant (Ki) in test [6] is 0.708 nM; in [7] it was 0.499 nM; in [8] it was 0.288 nM; in test [9] it was 0.184 nM. Moreover, the negative-log Ki (pKi) worked out at 9.24 in test [10], 9.18 in test [11], 9.56 in [12] and 9.59 in [13].
Turning to B3, the binding result in test [14] was “binds”.
In [15], B4 registered a half-maximal inhibitory concentration (IC50) of 0.783 nM and a Ki of 0.71 nM. Also, in test [16], the IC50 amounted to 1.3 nM and the inhibition constant (Ki) was found to be 1.2 nM.
With B5, the binding result in [14] is listed as “binds”.
